Consider one molecule from article PMC4678826, “Different genome stability proteins underpin primed and naïve adaptation in E. coli CRISPR-Cas immunity”.

One data set concerns the target T1, Cas1 R138G (Escherichia coli, UniProt Q46896 1-305, R138G).
T1 sequence: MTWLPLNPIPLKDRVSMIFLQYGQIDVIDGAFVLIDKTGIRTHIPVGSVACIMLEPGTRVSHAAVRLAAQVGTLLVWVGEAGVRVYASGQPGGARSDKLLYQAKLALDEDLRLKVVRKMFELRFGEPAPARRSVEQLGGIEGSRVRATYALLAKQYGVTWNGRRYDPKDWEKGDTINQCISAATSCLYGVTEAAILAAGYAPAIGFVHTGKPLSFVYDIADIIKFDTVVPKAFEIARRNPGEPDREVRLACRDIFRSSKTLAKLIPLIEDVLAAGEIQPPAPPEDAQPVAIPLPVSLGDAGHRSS
In words: EMSA; 5 mM EDTA; EMSA: 7 mM Tris-HCl pH 8.5, 9% glycerol, 50 mM NaCl, 100 ug/ml BSA, 5 mM EDTA, 10 min ambient temperature, 6 nM DNA, 5% acrylamide TBE gel at room temperature. Particulars: protein: recombinant; tags: N-terminal His6; chain copies: 2; label: 5'-32P; fork; 25 nt leading arm duplex, 26 nt ssDNA flap. (A gel shift assay detects complexes by their altered migration in electrophoresis.)

The target in another data set is T2, Cas1 R123G (Escherichia coli, UniProt Q46896 1-305, R123G).
T2 sequence: T1 sequence with R123G, G138R
The data set is described as above. Particulars: protein: recombinant; tags: N-terminal His6; chain copies: 2; label: 5'-32P; fork; 25 nt leading arm duplex, 26 nt ssDNA flap.

The target in the next data set is T3, Cas1 R84G (Escherichia coli, UniProt Q46896 1-305, R84G).
T3 sequence: T1 sequence with R84G, G138R
The description is as above. Particulars: protein: recombinant; tags: N-terminal His6; chain copies: 2; label: 5'-32P; fork; 25 nt leading arm duplex, 26 nt ssDNA flap.

The next data set concerns the target T4, Cas1;Cas2 (Escherichia coli;Escherichia coli, UniProt Q46896;P45956 1-305;1-94, |).
T4 sequence 1: T1 sequence with G138R
T4 sequence 2: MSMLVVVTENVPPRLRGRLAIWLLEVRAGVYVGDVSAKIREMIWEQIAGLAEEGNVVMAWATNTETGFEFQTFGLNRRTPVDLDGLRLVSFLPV
In words: EMSA; 5 mM EDTA; super-shifted complex Y; EMSA: 7 mM Tris-HCl pH 8.5, 9% glycerol, 50 mM NaCl, 100 ug/ml BSA, 5 mM EDTA, 10 min ambient temperature, 6 nM DNA, 5% acrylamide TBE gel at room temperature. Conditions: protein: recombinant;recombinant; tags: N-terminal His6;N-terminal His6; chain copies: 4;2; label: 5'-32P; fork; 25 nt leading arm duplex, 26 nt ssDNA flap.

Changes are numbered by the printed parent chain.

B1: fork-1 (mixed)
DNA 1: CAACGTCATAGACGATTACATTGCTACATGGAGCTGTCTAGAGGATCCGA
DNA 2: TCGGATCCTCTAGACAGCTCCATGATCACTGGCACTGGTAGAATTCGGC
DNA 3: GCCGAATTCTACCAGTGCCAGTGAT
Consider B1, for which the binding result with Cas1 R138G is “no binding”; with Cas1 R123G it was “no binding”; in the data set with Cas1 R84G, “no binding”; with Cas1;Cas2 it was “binds”.
